Laboratory results as given in publication PMC10101095, “The Oxidative Stress-Induced Hypothetical Protein PG_0686 in Porphyromonas gingivalis W83 Is a Novel Diguanylate Cyclase” (Microbiology Spectrum, 2023).
Where “and” joins values, the source holds several entries; their conditions need not be identical. Equal values may be shown once.

Experiments:
[1] = molecular target: the molecule itself; test: native gel or EMSA; native-PAGE of purified rPG_0686 / SEC fractions, with immunoblot
[2] = molecular target: the molecule itself; test: SEC; Superdex 200 10/300 GL, 100 uL of 0.2 mg/mL rPG_0686, mobile phase 0.15 M ammonium bicarbonate, 0.1 mL/min; sizes calculated against Bio-Rad 1511901 protein standard

B1: recombinant PG_0686 (rPG_0686) protein of Porphyromonas gingivalis W83 (enzyme, UniProt Q7MWD6 1-517, looked up)
chain: MQVIKTNETFDSLDKSKLERMLDIKEAHREGHLTLEEAKERMKKEVGSISPEEFAAAEQLFKERDQDECQNEDVRTMLQLFEGLINPIRPDLPFGHPIDAYLRENDKAKELLDQADALLERTFIPNPWIELMETLMGYKLHFARKQNQLYSTLEQKGFDRPSTTMWTYDDHIRDEMNKAMSLLREKDYDSFPAAYKEMAIVLRDLMEKEELILYPTSLKLISDKEFEEMKHGDREIGFFLIDMPELDAPAKQSKEAHGQSFMAELGALLAKHGMGTGGQDDKAILDVAEGKLTLEQINLLFRHLPVDISFVDENELVCFYTDTKHRVFPRSKGVIGREVRNCHPPKSVHIVEEIIDKFRRGEQDRAEFWINKPGVFIYIVYVAIRDADGRFRGVMEMMQDCTRIRSLEGSRTLLTWDEEQSPAQGSKESESDTAGEDGIRPDTKLKSLLQRYPQLMDDLPTISSKFTLLRSPMAKVILPVATIKMMSERADIPSDMLIGKLESLIASYNKPDRSEEK
notes: PG_0686, hypothetical protein / diguanylate cyclase of Porphyromonas gingivalis W83; 517 amino acids, 60 kDa; the ORF of the PG_0686 gene cloned in-frame into pEXP5-NT/TOPO; domains hemerythrin (96-215), PAS10 (297-402), DUF-1858 (421-497); Number of copies in the native oligomer differs by method (SEC: decamer and pentamer; native-PAGE: octamer and tetramer); The vector pEXP5-NT/TOPO probably …
stoichiometry N [1]: 8 and 4
stoichiometry N [2]: 10 and 5
